In experiment [1] the target is full-length GFP-LRRK2[G2019S] mutant (human) (UniProt Q5S007). Put plainly: SILAC mass spectrometry of GFP-binder immunoprecipitates from HEK-293 lysates; range told of the group of isoforms.
The target in experiment [2] is wild type full-length GFP-LRRK2 (human) (UniProt Q5S007). The experiment is described as above.
In experiment [3] the target is T1, full length human FLAG-LRRK2 (wild type) (human, UniProt Q5S007 1-2527, phosphoserine at 860, 910, 935, 955, 973 and 976 (mass spectrometry)).
T1 construct: mature; also called full length LRRK2
T1 sequence (Q5S007 whole entry): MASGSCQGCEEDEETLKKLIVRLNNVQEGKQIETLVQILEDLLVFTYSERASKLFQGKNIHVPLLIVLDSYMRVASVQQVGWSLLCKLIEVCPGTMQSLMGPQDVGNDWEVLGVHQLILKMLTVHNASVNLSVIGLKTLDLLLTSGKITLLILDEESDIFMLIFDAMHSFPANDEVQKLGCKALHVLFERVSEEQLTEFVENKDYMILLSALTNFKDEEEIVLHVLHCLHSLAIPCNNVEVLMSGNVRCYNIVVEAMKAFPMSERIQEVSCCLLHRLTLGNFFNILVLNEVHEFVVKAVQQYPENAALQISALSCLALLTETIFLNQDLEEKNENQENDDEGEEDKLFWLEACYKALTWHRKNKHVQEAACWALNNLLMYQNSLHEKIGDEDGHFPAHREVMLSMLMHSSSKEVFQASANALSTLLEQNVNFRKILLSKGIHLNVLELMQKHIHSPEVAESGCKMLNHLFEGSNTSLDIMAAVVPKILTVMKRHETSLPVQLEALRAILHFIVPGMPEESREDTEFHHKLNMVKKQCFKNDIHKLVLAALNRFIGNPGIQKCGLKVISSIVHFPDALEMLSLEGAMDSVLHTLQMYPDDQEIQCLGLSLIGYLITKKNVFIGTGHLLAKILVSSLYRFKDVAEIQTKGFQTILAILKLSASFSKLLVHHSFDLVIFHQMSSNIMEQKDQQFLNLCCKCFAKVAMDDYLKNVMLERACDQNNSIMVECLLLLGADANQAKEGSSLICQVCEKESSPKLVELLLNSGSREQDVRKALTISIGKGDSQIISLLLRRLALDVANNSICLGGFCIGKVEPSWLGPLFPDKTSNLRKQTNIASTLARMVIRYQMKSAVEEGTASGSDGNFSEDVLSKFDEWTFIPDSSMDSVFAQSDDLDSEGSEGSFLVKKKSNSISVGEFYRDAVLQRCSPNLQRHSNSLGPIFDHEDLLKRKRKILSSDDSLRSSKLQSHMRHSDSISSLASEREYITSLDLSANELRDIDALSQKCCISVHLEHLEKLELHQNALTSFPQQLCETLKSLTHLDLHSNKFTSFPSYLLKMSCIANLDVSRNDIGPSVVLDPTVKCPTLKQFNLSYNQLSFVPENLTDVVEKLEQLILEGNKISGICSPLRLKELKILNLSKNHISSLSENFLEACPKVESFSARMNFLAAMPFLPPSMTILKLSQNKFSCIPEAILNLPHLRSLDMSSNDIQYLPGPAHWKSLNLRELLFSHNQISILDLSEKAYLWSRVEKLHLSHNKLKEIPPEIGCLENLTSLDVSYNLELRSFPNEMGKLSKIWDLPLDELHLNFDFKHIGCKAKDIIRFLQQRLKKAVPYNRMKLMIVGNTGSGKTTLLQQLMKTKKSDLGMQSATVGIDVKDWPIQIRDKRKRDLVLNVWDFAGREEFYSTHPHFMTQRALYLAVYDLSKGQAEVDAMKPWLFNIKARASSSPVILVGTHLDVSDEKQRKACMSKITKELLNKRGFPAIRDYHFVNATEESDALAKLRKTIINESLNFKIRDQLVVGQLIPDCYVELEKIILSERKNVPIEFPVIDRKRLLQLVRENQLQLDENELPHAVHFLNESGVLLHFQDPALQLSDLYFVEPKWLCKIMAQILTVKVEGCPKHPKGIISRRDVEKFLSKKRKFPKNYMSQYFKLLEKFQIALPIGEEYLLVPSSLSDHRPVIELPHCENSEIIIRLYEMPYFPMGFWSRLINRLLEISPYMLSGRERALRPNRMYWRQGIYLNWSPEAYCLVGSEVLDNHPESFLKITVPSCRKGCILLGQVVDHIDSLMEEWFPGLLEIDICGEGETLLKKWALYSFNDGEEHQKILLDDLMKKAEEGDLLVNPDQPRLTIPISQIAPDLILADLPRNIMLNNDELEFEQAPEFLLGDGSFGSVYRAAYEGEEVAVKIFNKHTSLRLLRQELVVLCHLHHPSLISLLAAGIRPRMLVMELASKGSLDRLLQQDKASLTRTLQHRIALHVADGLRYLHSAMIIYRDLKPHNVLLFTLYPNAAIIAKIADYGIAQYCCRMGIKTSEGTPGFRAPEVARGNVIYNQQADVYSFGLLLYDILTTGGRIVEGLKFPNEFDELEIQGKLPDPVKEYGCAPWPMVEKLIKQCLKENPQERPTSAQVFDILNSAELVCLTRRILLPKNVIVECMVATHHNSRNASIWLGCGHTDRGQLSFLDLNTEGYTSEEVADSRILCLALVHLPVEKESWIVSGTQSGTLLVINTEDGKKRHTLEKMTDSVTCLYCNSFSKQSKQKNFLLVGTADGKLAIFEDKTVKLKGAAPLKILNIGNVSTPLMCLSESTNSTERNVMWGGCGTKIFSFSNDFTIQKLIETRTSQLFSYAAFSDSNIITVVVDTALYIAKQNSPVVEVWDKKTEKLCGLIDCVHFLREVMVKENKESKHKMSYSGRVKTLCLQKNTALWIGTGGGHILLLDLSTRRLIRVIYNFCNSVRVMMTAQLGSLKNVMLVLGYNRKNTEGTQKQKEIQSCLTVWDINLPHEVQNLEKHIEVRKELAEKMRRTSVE
Put plainly: glutathione-Sepharose affinity purification of GST tagged 14-3-3 isoforms from HEK-293 cells expressing FLAG-LRRK2, anti-FLAG immunoblot. As for the experimental part:
FIG. 2. […] A.) 5 mg of Swiss 3T3 lysate was subjected to immunoprecipitation with control IgG or anti-LRRK2 (S348C) antibody. Immunoprecipitates were resolved on 4-12% Novex SDS-polyacrylamide gel and immunoblotted with antibodies against LRRK2 (S374C), Hsp90 and pan 14-3-3. B.) 5 mg of Swiss 3T3 lysate was subjected to immunoprecipitation with anti-pan 14-3-3 antibodies and immunoprecipitates were resolved on 4-12% Novex SDS-polyacrylamide gels and immunoblotted with antibodies against pan-14-3-3 and LRRK2 (S374C). […] 36 hours post transfection cells were lysed and glutathione-Sepharose affinity purified proteins immunoblotted with anti-GST or anti-FLAG antibodies. D.) Fragments encoding the indicated domains of LRRK2 were transiently expressed in HEK-293 cells and immunoprecipitated with anti-FLAG antibodies. The immunoprecipitates were resolved on 4-12% Novex SDS-polyacrylamide gels and probed with either anti-FLAG antibodies or 14-3-3 overlay with digoxigenin labeled 14-3-3 in a far western assay. […] E.) Endogenous LRRK2 was immunoprecipitated from Swiss 3T3 cells with anti-LRRK2 (S348C) and subsequently treated with λ-phosphatase in the absence or presence of EDTA prior to immunoblot analysis with indicated antibodies or a 14-3-3 overlay assay. F.) As in E, except experiment undertaken with immunoprecipitated FLAG-LRRK2 obtained following transient transfection in HEK-293 cells.
Immunological procedures. Cell lysates (10-30 μg) were resolved by electrophoresis on SDS polyacrylamide gels or Novex 4-12% gradient gels, and electroblotted to nitrocellulose membranes. Membranes were blocked with 5% skimmed milk (w/v) in 50 mM Tris/HCl, pH 7.5, 0.15 M NaCl and 0.1% (v/v) Tween (TBST Buffer). For phospho-antibodies, primary antibody was used at a concentration of 1 μg/ml, diluted in 5% skimmed milk in TBST with the inclusion of 10 μg/ml dephosphorylated-peptide.

Sequence of full-length GFP-LRRK2[G2019S] mutant (human) (Q5S007 whole entry G2019S, canonical isoform): as the sequence (Q5S007 whole entry) above, with G2019S counted along it
Sequence of wild type full-length GFP-LRRK2 (human) (Q5S007 whole entry): as the sequence (Q5S007 whole entry) above

As to endogenous 14-3-3 in 293 cells, the fold enrichment compared to GFP alone in experiment [1] and in experiment [2] was 10 to 30 fold throughout.

B1: GST tagged human 14-3-3 sigma (other)
chain: MERASLIQKAKLAEQAERYEDMAAFMKGAVEKGEELSCEERNLLSVAYKNVVGGQRAAWRVLSSIEQKSNEEGSEEKGPEVREYREKVETELQGVCDTVLGLLDSHLIKEAGDAESRVFYLKMKGDYYRYLAEVATGDDKKRIIDSARSAYQEAMDISKKEMPPTNPIRLGLALNFSVFHYEIANSPEEAISLAKTTFDEAMADLHTLSEDSYKDSTLIMQLLRDNLTLWTADNAGEEGGEAPQEPQS
notes: As for GST tagged 14-3-3 beta; also called atypical sigma isoform; not shown: GST tag from the pEBG plasmid
For B1, the binding result in experiment [3] is “no binding”.

B2: GST tagged human 14-3-3 zeta (other)
chain: MDKNELVQKAKLAEQAERYDDMAACMKSVTEQGAELSNEERNLLSVAYKNVVGARRSSWRVVSSIEQKTEGAEKKQQMAREYREKIETELRDICNDVLSLLEKFLIPNASQAESKVFYLKMKGDYYRYLAEVAAGDDKKGIVDQSQQAYQEAFEISKKEMQPTHPIRLGLALNFSVFYYEILNSPEKACSLAKTAFDEAIAELDTLSEESYKDSTLIMQLLRDNLTLWTSDTQGDEAEAGEGGEN
notes: As for GST tagged 14-3-3 beta; also called GST-14-3-3 zeta; not shown: GST tag from the pEBG plasmid
Turning to B2, the binding result in experiment [3] is given as “binds”.

B3: GST tagged human 14-3-3 eta (other)
chain: MGDREQLLQRARLAEQAERYDDMASAMKAVTELNEPLSNEDRNLLSVAYKNVVGARRSSWRVISSIEQKTMADGNEKKLEKVKAYREKIEKELETVCNDVLSLLDKFLIKNCNDFQYESKVFYLKMKGDYYRYLAEVASGEKKNSVVEASEAAYKEAFEISKEQMQPTHPIRLGLALNFSVFYYEIQNAPEQACLLAKQAFDDAIAELDTLNEDSYKDSTLIMQLLRDNLTLWTSDQQDEEAGEGN
notes: As for GST tagged 14-3-3 beta; also called GST-14-3-3 eta; not shown: GST tag from the pEBG plasmid
For B3, the binding result in experiment [3] is reported as “binds”.

B4: GST tagged human 14-3-3 beta (other)
chain: MTMDKSELVQKAKLAEQAERYDDMAAAMKAVTEQGHELSNEERNLLSVAYKNVVGARRSSWRVISSIEQKTERNEKKQQMGKEYREKIEAELQDICNDVLELLDKYLIPNATQPESKVFYLKMKGDYFRYLSEVASGDNKQTTVSNSQQAYQEAFEISKKEMQPTHPIRLGLALNFSVFYYEILNSPEKACSLAKTAFDEAIAELDTLNEESYKDSTLIMQLLRDNLTLWTSENQGDEGDAGEGEN
notes: One of all seven isoforms of human 14-3-3 expressed from pEBG plasmids; also called GST-14-3-3 beta; not shown: GST tag from the pEBG plasmid
Consider B4, for which, in experiment [3], the binding result is “binds”.

B5: GST tagged human 14-3-3 theta (other)
chain: MEKTELIQKAKLAEQAERYDDMATCMKAVTEQGAELSNEERNLLSVAYKNVVGGRRSAWRVISSIEQKTDTSDKKLQLIKDYREKVESELRSICTTVLELLDKYLIANATNPESKVFYLKMKGDYFRYLAEVACGDDRKQTIDNSQGAYQEAFDISKKEMQPTHPIRLGLALNFSVFYYEILNNPELACTLAKTAFDEAIAELDTLNEDSYKDSTLIMQLLRDNLTLWTSDSAGEECDAAEGAEN
notes: As for GST tagged 14-3-3 beta; also called GST-14-3-3 theta; not shown: GST tag from the pEBG plasmid
Consider B5, for which, in experiment [3], the binding result was “binds”.

B6: GST tagged human 14-3-3 gamma (other)
chain: MVDREQLVQKARLAEQAERYDDMAAAMKNVTELNEPLSNEERNLLSVAYKNVVGARRSSWRVISSIEQKTSADGNEKKIEMVRAYREKIEKELEAVCQDVLSLLDNYLIKNCSETQYESKVFYLKMKGDYYRYLAEVATGEKRATVVESSEKAYSEAHEISKEHMQPTHPIRLGLALNYSVFYYEIQNAPEQACHLAKTAFDDAIAELDTLNEDSYKDSTLIMQLLRDNLTLWTSDQQDDDGGEGNN
notes: As for GST tagged 14-3-3 beta; also called GST-14-3-3 gamma; not shown: GST tag from the pEBG plasmid
With B6, in experiment [3], the binding result was “binds”.

B7: GST tagged human 14-3-3 epsilon (other)
chain: MDDREDLVYQAKLAEQAERYDEMVESMKKVAGMDVELTVEERNLLSVAYKNVIGARRASWRIISSIEQKEENKGGEDKLKMIREYRQMVETELKLICCDILDVLDKHLIPAANTGESKVFYYKMKGDYHRYLAEFATGNDRKEAAENSLVAYKAASDIAMTELPPTHPIRLGLALNFSVFYYEILNSPDRACRLAKAAFDDAIAELDTLSEESYKDSTLIMQLLRDNLTLWTSDMQGDGEEQNKEALQDVEDENQ
notes: As for GST tagged 14-3-3 beta; also called GST-14-3-3 epsilon; not shown: GST tag from the pEBG plasmid
Take B7: the binding result in experiment [3] is listed as “binds”.

The values above are taken from patent publication US20110256062A1 (MEDICAL RESEARCH COUNCIL, published 2011).
